# According to US20230194519A1 (CCOA THERAPEUTICS, published 2023):
# Assays:
# [1] = biological target: Inactive αIIbβ3 (recombinant human ectodomain αIIbβ3 on DETA beads before activation) (human) (UniProt P08514); assay: flow cytometry, 50 nM FITC-PAC-1 on inactive αIIbβ3 beads, n ≥ 3
# [2] = biological target: Activated αIIbβ3 (recombinant human ectodomain αIIbβ3 on DETA beads after incubation in activation buffer with CaCl2, MnCl2 and MgCl2) (human) (UniProt P08514); assay: flow cytometry, 50 nM FITC-PAC-1 on activated αIIbβ3 beads, n ≥ 3
# [3] = biological target: T1, recombinant human ectodomain αIIbβ3 immobilized on a surface (activation state not stated at the place of the … (human, UniProt P08514 32-993; P05106 27-718); assay: sandwich ELISA, fibrinogen dose response on plate-immobilized αIIbβ3, HRP labelled detection antibody
# T1 construct: also called αIIbβ3 coupled beads; αIIbβ3 coated beads
# Method: Fibrinogen ELISA Assay. To ensure similar immobilization levels of recombinant human ectodomain αIIbβ3 between the ELISA plate and integrin coupled magnetic beads, the wells of a 96-well micro plate (Nunc MaxiSorp) were incubated with the same αIIbβ3 concentration per surface area as during the preparation of the magnetic beads, 6.6×10⁴ μg·mL⁻¹·cm⁻². Each well was coated with αIIbβ3 or control proteins (BSA and β3−/− platelet lysate) by incubation of 6 μg/μL protein in binding buffer (TRIS buffered saline with 0.05% TWEEN-20 and 1 mM each of MgCl₂, MnCl₂ and CaCl₂) at 4° C. overnight. Incubation of 3% skim milk (ED Millipore) and 2% TWEEN-20 for 1 hour at 37° C. was used for blocking. The concentration of αIIbβ3 per surface area of bead used when coating SAM coated beads is 6.6×10⁴ μg·mL⁻¹·cm⁻², therefore the wells of 96 well plates used were coated with the same density EDC/NHS quenching achieved by increase pH to 8.6. Bead concentration for synthesis: 6×10⁹ beads·mL⁻¹; Integrin-bead reaction concentration=250 μg·mL⁻¹; Integrin Used=6.6×10⁴ μg·mL⁻¹·cm⁻²; Well Surface Area (50 μL)=0.93 cm²; Concentration/wee for ELISA=6×10⁴ μg·mL⁻¹ (6 μL/well in 50 μL total volume); Stock [αIIbβ3]=5×10⁵ μg·mL⁻¹.
# To evaluate the analytical potential of these αIIbβ3 coupled molecular probes, a flow cytometry sandwich assay was developed. […]
# [4] = biological target: T1, recombinant human ectodomain αIIbβ3 …; assay: flow cytometry sandwich assay, fibrinogen dose response on αIIbβ3 coupled beads, FITC labelled detection antibody, no blocking step
# Source text: To evaluate the analytical potential of these αIIbβ3 coupled molecular probes, a flow cytometry sandwich assay was developed. […] The same primary antibody was used for both assays, however, the detection antibody for ELISA was HRP labelled and for flow cytometry was FITC labelled. The fibrinogen does response curves are depicted in the inserts of each of FIGS. 5A and 5B. […] The flow cytometry based assay produced a significant increase in performance compared to ELISA, even though a blocking step and a signal amplification-based detection strategy were employed in ELISA. It was postulated that the significant increase in performance observed is due to the SAM and the immobilization strategy which promotes the high-affinity ligand binding conformation of the integrin.
# T1 sequence (P08514 other isoform, or with tags, fused parts or gaps limits assumed, chain 1 of 2): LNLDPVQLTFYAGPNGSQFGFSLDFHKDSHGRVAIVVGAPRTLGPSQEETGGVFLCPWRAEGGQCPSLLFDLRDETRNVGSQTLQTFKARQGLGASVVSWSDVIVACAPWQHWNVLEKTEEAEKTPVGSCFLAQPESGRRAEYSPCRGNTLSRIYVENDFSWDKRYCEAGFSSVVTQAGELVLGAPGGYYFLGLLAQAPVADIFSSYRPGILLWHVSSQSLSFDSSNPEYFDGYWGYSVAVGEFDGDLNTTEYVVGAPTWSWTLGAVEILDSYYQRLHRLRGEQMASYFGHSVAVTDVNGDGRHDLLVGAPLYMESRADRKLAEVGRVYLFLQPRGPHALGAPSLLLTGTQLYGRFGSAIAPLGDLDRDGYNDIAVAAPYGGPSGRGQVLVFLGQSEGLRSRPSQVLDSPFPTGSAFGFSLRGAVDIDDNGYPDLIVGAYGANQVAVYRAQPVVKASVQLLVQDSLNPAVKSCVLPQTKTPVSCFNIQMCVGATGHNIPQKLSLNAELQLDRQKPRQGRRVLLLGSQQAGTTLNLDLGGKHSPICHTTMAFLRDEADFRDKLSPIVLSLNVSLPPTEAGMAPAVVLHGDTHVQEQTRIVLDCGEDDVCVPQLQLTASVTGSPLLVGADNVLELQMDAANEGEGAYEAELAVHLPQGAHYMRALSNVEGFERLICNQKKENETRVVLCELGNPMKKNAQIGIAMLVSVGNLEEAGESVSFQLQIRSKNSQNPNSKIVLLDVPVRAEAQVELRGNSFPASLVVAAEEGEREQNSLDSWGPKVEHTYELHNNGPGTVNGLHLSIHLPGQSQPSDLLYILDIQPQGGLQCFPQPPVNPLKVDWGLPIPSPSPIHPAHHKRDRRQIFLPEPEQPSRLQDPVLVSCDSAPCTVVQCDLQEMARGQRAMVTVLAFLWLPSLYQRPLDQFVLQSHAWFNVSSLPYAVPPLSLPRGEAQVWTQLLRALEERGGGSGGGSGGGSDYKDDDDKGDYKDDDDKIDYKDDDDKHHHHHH
# T1 sequence (P05106 other isoform, or with tags, fused parts or gaps limits assumed, chain 2 of 2): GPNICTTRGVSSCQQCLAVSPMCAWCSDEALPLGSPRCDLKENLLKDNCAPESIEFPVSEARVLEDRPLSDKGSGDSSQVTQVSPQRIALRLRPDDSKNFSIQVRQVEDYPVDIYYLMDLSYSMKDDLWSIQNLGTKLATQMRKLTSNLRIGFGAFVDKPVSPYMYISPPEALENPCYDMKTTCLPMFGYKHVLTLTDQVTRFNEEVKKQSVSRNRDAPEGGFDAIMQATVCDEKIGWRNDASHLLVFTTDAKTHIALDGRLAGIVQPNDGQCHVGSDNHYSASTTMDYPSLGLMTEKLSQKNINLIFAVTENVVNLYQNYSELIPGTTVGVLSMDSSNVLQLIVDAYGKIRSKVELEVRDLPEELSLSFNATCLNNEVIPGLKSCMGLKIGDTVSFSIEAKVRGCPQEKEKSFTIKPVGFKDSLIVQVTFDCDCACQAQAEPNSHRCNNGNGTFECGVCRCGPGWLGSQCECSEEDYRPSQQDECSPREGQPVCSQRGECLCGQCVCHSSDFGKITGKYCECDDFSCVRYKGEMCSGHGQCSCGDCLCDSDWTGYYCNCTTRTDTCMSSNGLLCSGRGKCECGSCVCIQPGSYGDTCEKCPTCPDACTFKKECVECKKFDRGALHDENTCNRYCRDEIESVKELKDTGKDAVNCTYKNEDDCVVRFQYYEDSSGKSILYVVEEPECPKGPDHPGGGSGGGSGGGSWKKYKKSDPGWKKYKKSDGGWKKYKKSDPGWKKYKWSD
# Chain of Inactive αIIbβ3 (recombinant human ectodomain αIIbβ3 on DETA beads before activation) (human) (P08514 other isoform, or with tags, fused parts or gaps limits assumed, chain 1 of 2): as the sequence (P08514 other isoform, or with tags, fused parts or gaps limits assumed, chain 1 of 2) above
# Chain of Inactive αIIbβ3 (recombinant human ectodomain αIIbβ3 on DETA beads before activation) (human) (chain, as listed by the source limits assumed, chain 2 of 2): as the sequence (P05106 other isoform, or with tags, fused parts or gaps limits assumed, chain 2 of 2) above
# Chain of Activated αIIbβ3 (recombinant human ectodomain αIIbβ3 on DETA beads after incubation in activation buffer with CaCl2, MnCl2 and MgCl2) (human) (P08514 other isoform, or with tags, fused parts or gaps limits assumed, chain 1 of 2): as the sequence (P08514 other isoform, or with tags, fused parts or gaps limits assumed, chain 1 of 2) above
# Chain of Activated αIIbβ3 (recombinant human ectodomain αIIbβ3 on DETA beads after incubation in activation buffer with CaCl2, MnCl2 and MgCl2) (human) (chain, as listed by the source limits assumed, chain 2 of 2): as the sequence (P05106 other isoform, or with tags, fused parts or gaps limits assumed, chain 2 of 2) above
Mean Fluorescence Intensity (MFI) [1],Mean Fluorescence Intensity (MFI) [2],Kd [3],Kd [4],Molecule
212 MFI,942 MFI,–,–,PAC-1 (antibody)
–,–,2200 nM,210 nM,"fibrinogen (ligand, Alexa488 label in the Table 2 assay, Native ligand of αIIbβ3; also called Alexa488 labelled fibrinogen; Alexa 488 - Fibrinogen) chain 1: ADSGEGDFLAEGGGVRGPRVVERHQSACKDSDWPFCSDEDWNYKCPSGCRMKGLIDEVNQDFTNRINKLKNSLFEYQKNNKDSHSLTTNIMEILRGDFSSANNRDNTYNRVSEDLRSRIEVLKRKVIEKVQHIQLLQKNVRAQLVDMKRLEVDIDIKIRSCRGSCSRALAREVDLKDYEDQQKQLEQVIAKDLLPSRDRQHLPLIKMKPVPDLVPGNFKSQLQKVPPEWKALTDMPQMRMELERPGGNEITRGGSTSYGTGSETESPRNPSSAGSWNSGSSGPGSTGNRNPGSSGTGGTATWKPGSSGPGSTGSWNSGSSGTGSTGNQNPGSPRPGSTGTWNPGSSERGSAGHWTSESSVSGSTGQWHSESGSFRPDSPGSGNARPNNPDWGTFEEVSGNVSPGTRREYHTEKLVTSKGDKELRTGKEKVTSGSTTTTRRSCSKTVTKTVIGPDGHKEVTKEVVTSEDGSDCPEAMDLGTLSGIGTLDGFRHRHPDEAAFFDTASTGKTFPGFFSPMLGEFVSETESRGSESGIFTNTKESSSHHPGIAEFPSRGKSSSYSKQFTSSTSYNRGDSTFESKSYKMADEAGSEADHEGTHSTKRGHAKSRPV chain 2: QGVNDNEEGFFSARGHRPLDKKREEAPSLRPAPPPISGGGYRARPAKAAATQKKVERKAPDAGGCLHADPDLGVLCPTGCQLQEALLQQERPIRNSVDELNNNVEAVSQTSSSSFQYMYLLKDLWQKRQKQVKDNENVVNEYSSELEKHQLYIDETVNSNIPTNLRVLRSILENLRSKIQKLESDVSAQMEYCRTPCTVSCNIPVVSGKECEEIIRKGGETSEMYLIQPDSSVKPYRVYCDMNTENGGWTVIQNRQDGSVDFGRKWDPYKQGFGNVATNTDGKNYCGLPGEYWLGNDKISQLTRMGPTELLIEMEDWKGDKVKAHYGGFTVQNEANKYQISVNKYRGTAGNALMDGASQLMGENRTMTIHNGMFFSTYDRDNDGWLTSDPRKQCSKEDGGGWWYNRCHAANPNGRYYWGGQYTWDMAKHGTDDGVVWMNWKGSWYSMRKMSMKIRPFFPQQ chain 3: YVATRDNCCILDERFGSYCPTTCGIADFLSTYQTKVDKDLQSLEDILHQVENKTSEVKQLIKAIQLTYNPDESSKPNMIDAATLKSRKMLEEIMKYEASILTHDSSIRYLQEIYNSNNQKIVNLKEKVAQLEAQCQEPCKDTVQIHDITGKDCQDIANKGAKQSGLYFIKPLKANQQFLVYCEIDGSGNGWTVFQKRLDGSVDFKKNWIQYKEGFGHLSPTGTTEFWLGNEKIHLISTQSAIPYALRVELEDWNGRTSTADYAMFKVGPEADKYRLTYAYFAGGDAGDAFDGFDFGDDPSDKFFTSHNGMQFSTWDNDNDKFEGNCAEQDGSGWWMNKCHAGHLNGVYYQGGTYSKASTPNGYDNGIIWATWKTRWYSMKKTTMKIIPFNRLTIGEGQQHHLGGAKQAGDV"
